Data: PMC6563369, “Systematic unravelling of the inulin hydrolase from Bacillus amyloliquefaciens for efficient conversion of inulin to poly-(γ-glutamic acid)” (Biotechnology for Biofuels, 2019)

How the values were obtained:
Experiment in all cases: DNS reducing sugar assay, Lineweaver-Burk
Assay type in all cases: biochemical, Bacillus amyloliquefaciens
Conditions in all cases: 50 mM PBS pH 7.5, 55 °C, 20 min
[1] = substrate: OC[C@H]1O[C@@](CO)(O[C@H]2O[C@H](CO)[C@@H](O)[C@H](O)[C@H]2O)[C@@H](O)[C@@H]1O
Description: (§1) DNS reducing sugar assay, Lineweaver-Burk on CscA (inulin hydrolase)

[2] = substrate: OC[C@H]1O[C@H](OC[C@H]2O[C@H](OC[C@H]3O[C@H](O[C@]4(CO)O[C@H](CO)[C@@H](O)[C@@H]4O)[C@H](O)[C@@H](O)[C@@H]3O)[C@H](O)[C@@H](O)[C@H]2O)[C@H](O)[C@@H](O)[C@H]1O
Description: as §1

[3] = substrate: OC[C@H]1O[C@H](OC[C@H]2O[C@H](O[C@]3(CO)O[C@H](CO)[C@@H](O)[C@@H]3O)[C@H](O)[C@@H](O)[C@@H]2O)[C@H](O)[C@@H](O)[C@H]1O
Description: as §1

B1: CscA (inulin hydrolase) (Bacillus amyloliquefaciens DSM 7 = ATCC 23350) (protein)
chain: MDRIQQAEEALKKAEGKVKQRYRLGYHIMPRANWINDPNGLIQFKGEYHVFFQHHPFDENWGPMHWGHVKSKDLIHWEHLPIALAPGDAFDQSGCFSGSAVDDRGRLVLIYTGHNMIDPEKDLFYQTQNIAVSQDGAVFEKLQDNPVIAEPPEDSSRHFRDPKVWKHRGDWYMVVGNSTKENVGRVILYRSSDLRNWEYAGVLAQSDGHLGYMWECPDFFELGGKHVLLISPQGIEADGDSYKNLHQTGYLIGDYNDETNKFTHGAFKELDHGHDFYAVQTLLDDKGRRIAVGWMDMWESEMPTKADGWCGALTLPRELTLRDDHKLLMNPVEETKQLRKMKYRECAGRSVSGSYLAKTSEELLEVQVVYDVNDCDAETAGIKIRGLDEEELVLKYNLTDKKLTLDCTKMGKAKDGVRRVRMDASGKLALRIFIDRSSIEVFANHGEATMTSRIYPKEGRLGLELFSEKGAVKVEEFTYWTLKDIWKKS
notes: full-length ORF (1470 bp, 489 residues, no signal peptide), pET-28a BamHI/XhoI, His-tagged, expressed in E. coli BL21(DE3), Ni-NTA
Km [1]: 4.33 ± 0.03 mM | Vmax [1]: 1760 µmol/min/mg | kcat/Km [1]: 398000 ± 20000 M⁻¹ s⁻¹ | Km [2]: 19.08 ± 0.09 mM | Vmax [2]: 687 µmol/min/mg | kcat/Km [2]: 36500 ± 667 M⁻¹ s⁻¹ | Km [3]: 12.25 ± 0.07 mM | Vmax [3]: 724 µmol/min/mg | kcat/Km [3]: 57500 ± 1330 M⁻¹ s⁻¹
